Measured values: US20260152552A1 (CURON BIOPHARMACEUTICAL SHANGHAI, published 2026)
Substitutions are numbered along the chain they refer to.

B1: anti-L1CAM human-mouse chimeric antibody ch103E9B3 (antibody, V domains shown)
VH: EVQLQQSGPELLKPGASVKISCKASGYTFTSYTMHWVKQSHGKSLEWIGDINPNYGGTSYNEKFKDKATLTVDKSSSTAYMELRSLTSEDSAVYYCAREGATGTWYFDVWGTGTTVTVSS
VL: QIVLTQSPALMSASPGEKVTMTCSASSSVSFMFWYQQKPRSSPKPWIYLTSNLASGVPARFSGSGSGTSYSLTISSMEAEDAATYYCQQWRSNPPTFGAGTKLELK
notes: VH and VL of mouse 103E9B3 with human IgG1 constant regions; The entries as printed seem to begin with a leader peptide
B2: anti-L1CAM human-mouse chimeric antibody ch25F8H8 (antibody, V domains shown)
VH: QVQLQQSGAELAKPGASVKMSCQASGYTFTTYWMHWVKQRPGQGLEWIGYINPSTGYTDYNQKFKDKATLTADKSSSTAYMQLSSLTSEDSAVYYCARRQLGLPLFDYWGQGTTLTVSS
VL: DIVMTQSHKFLSTSVGDRVSITCKASQDVGTAVAWYQHKPGQSPKLLIFWASTRHTGVPDRFTGSGSGTDFTLTISNVQSEDLADYFCQQYSNYPLTFGAGPKLELK
notes: VH and VL of mouse 25F8H8 with human IgG1 constant regions (CH1, CH2, CH3)
B3: anti-L1CAM human-mouse chimeric antibody ch46F1D5 (antibody, V domains shown)
VH: B2 VH with L4V, V18M, Q23K, T31R, H35Q, K63N, Q100H
VL: B2 VL with L11M, V15L, H38Q, F49Y, D85E, P102T, E105D
notes: VH and VL of mouse 46F1D5 with human IgG1 constant regions; The entries as printed seem to begin with a leader peptide
B4: anti-L1CAM human-mouse chimeric antibody ch26A12C1 (antibody, V domains shown)
VH: B2 VH with Q23K, T31N, H35Q, G56Y, T58S, Y80F, L101F, V117L
VL: B2 VL with L11M, H38Q, F49Y, A84T, P102T, K103E
notes: VH and VL of mouse 26A12C1 with human IgG1 constant regions; The entries as printed seem to begin with a leader peptide
B5: anti-L1CAM human-mouse chimeric antibody ch49E10H1 (antibody, V domains shown)
VH: DVQLQESGPGLVKPSQSLSLTCTVTGYSITSDYAWNWIRQFPGNRLEWMGYITYSGTTTYNPSLKSRISITRDTSKNQFFLQLNSVTTADTATYYCTLDHYGNYAYFDYWGQGTTLTVSS
VL: QIVLSQSPAILSASPGEKVTMTCRASSSVSFMHWYQQKPRSSPKPWIYASSNLVSGVPTRFSGSGSGTSYSLTISRVEAEDAATYYCQQWSSNPSTFGAGTKLELK
notes: VH and VL of mouse 49E10H1 with human IgG1 constant regions; The entries as printed seem to begin with a leader peptide
B6: mouse anti-L1CAM monoclonal antibody 103E9B3 (antibody, V domains shown)
VH: B1 VH
VL: B1 VL
notes: Mouse IgG tested as hybridoma supernatant
B7: mouse anti-L1CAM monoclonal antibody 25F8H8 (antibody, V domains shown)
VH: B2 VH
VL: B2 VL
notes: as for B6
B8: mouse anti-L1CAM monoclonal antibody 26A12C1 (antibody, V domains shown)
VH: B2 VH with Q23K, T31N, H35Q, G56Y, T58S, Y80F, L101F, V117L
VL: B2 VL with L11M, H38Q, F49Y, A84T, P102T, K103E
notes: as for B6
B9: mouse anti-L1CAM monoclonal antibody 46F1D5 (antibody, V domains shown)
VH: B2 VH with L4V, V18M, Q23K, T31R, H35Q, K63N, Q100H
VL: B2 VL with L11M, V15L, H38Q, F49Y, D85E, P102T, E105D
notes: as for B6
B10: mouse anti-L1CAM monoclonal antibody 49E10H1 (antibody, V domains shown)
VH: B5 VH
VL: B5 VL
notes: as for B6

target: T1, human L1CAM (L1 cell adhesion molecule), endogenously expressed on the surface of HeLa cells (human, UniProt P32004 20-1257); assay: flow cytometry on HeLa cells (endogenous human L1CAM)
T1 construct: whole, on cells; also called CD171
Description: This example utilizes HeLa cells and L1CAM-knockout HeLa cells (purchased from Abcam) to determine the binding of mouse anti-L1CAM monoclonal antibodies to endogenously expressed human L1CAM on the cell surface. L1CAM-knockout HeLa cells are referred to as HeLa KO cells in this invention. HeLa cells are cultured in DMEM complete medium (purchased from Corning) containing 10% FBS (purchased from Gibco) and 100 U/mL penicillin mixture (Thermofisher, 15140122). […] Then, the human-mouse chimeric antibodies are serially diluted in DMEM complete medium, with 25 μL of the diluted chimeric antibody solution added to each well, gently mixed, and incubated at 4° C. for 1 hour. Then, 150 μL of PBS buffer containing 2% FBS (purchased from Corning) is added to each well, centrifuged at 1400 rpm for 4 minutes, the supernatant is removed, and the wells are washed once more. Then, 50 μL of Alexa Flour 647-labeled goat anti-human fluorescent secondary antibody (purchased from Jacksonimmuno) diluted 1:800 is added to each well, and the 96-well plate is incubated at 4° C. for 0.5 hours. The cells are washed twice with PBS solution containing 2% FBS, then resuspended in 120 μL of PBS, and the cell surface fluorescence signal is detected using a flow cytometer (BD FACSCelesta), obtaining the median fluorescence intensity (MFI). A dose-response curve is generated, and the half-maximal effective concentration (EC50) is calculated using non-linear regression with GraphPad software.

T1 sequence (P32004 20-1257): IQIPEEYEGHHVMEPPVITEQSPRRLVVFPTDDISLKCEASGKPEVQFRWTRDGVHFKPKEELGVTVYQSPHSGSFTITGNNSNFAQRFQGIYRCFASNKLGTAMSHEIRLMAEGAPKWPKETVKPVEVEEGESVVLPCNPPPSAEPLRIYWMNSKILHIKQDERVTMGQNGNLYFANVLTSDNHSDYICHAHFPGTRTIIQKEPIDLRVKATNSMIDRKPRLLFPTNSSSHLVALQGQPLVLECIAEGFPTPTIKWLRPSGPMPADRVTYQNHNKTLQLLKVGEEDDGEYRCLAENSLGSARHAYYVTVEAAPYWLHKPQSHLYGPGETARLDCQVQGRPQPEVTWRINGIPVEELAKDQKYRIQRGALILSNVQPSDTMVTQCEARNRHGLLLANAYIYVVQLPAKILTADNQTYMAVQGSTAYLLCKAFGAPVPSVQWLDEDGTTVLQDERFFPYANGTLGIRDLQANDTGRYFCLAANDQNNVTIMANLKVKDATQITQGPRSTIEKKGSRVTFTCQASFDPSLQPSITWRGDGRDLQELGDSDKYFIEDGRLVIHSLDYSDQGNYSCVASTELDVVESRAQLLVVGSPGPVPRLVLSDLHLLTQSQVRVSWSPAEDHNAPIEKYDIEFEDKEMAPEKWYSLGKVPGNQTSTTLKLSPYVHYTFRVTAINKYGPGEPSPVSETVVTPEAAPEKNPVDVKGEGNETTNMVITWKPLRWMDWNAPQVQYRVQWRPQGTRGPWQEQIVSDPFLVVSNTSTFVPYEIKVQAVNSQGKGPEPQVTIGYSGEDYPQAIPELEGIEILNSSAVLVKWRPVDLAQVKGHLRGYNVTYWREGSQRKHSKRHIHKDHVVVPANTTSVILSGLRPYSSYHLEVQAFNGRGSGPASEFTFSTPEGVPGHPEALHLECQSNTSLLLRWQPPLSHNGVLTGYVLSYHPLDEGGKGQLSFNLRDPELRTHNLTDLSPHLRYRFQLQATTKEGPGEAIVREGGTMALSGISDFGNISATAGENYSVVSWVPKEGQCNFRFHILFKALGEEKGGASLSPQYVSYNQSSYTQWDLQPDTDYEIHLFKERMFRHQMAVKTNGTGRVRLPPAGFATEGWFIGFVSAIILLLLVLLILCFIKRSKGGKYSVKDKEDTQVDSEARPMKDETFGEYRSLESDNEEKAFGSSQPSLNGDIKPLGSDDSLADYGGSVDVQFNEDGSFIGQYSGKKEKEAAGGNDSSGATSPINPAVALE

Row | EC50 | Maxium MFI | Binder
1 | 1110 pM | 45400 MFI | B1
2 | 833 pM | 29300 MFI | B2
3 | 845 pM | 43100 MFI | B3
4 | 739 pM | 44700 MFI | B4
5 | 978 pM | 42900 MFI | B5

target: T1, human L1CAM (L1 cell adhesion …); assay: as above; remark: another data set of the same source
Description: The experimental principle is as follows: HeLa cells express high levels of L1CAM protein on their surface. After incubating humanized L1CAM antibodies with the cells, the binding ability of the antibodies to L1CAM on the surface of HeLa cells can be determined by flow cytometry. The experimental method is descripted as following: Humanized L1CAM antibodies (Human IgG1-Kappa) are diluted in complete medium in a four-fold serial dilution, with seven concentration gradient points. HeLa cells are cultured in DMEM complete medium (Corning, 10-013-CVR) containing 10% FBS (Gibco, 10099-141) and 100 U/mL penicillin mixture (Thermofisher, 15140122). When the cell coverage in the culture container reaches 80-90%, TrypLE (Thermofisher, 12604-013) is used to digest the HeLa cells from the culture container, and they are seeded in a 96-well plate (AXYGEN, P-96-450V-C) at a density of 2.2×10⁶ cells/ml, with 100,000 cells (45 μL complete medium) per well. Then, 5 μL of the antibody dilution is added to each well, gently mixed, and the 96-well plate is incubated at 4° C. for 1 hour. Then, 150 μL of PBS solution containing 2% FBS (Corning, 21-040-CVC) is added to each well, centrifuged at 1400 rpm for 4 minutes, the supernatant is removed, and the wells are washed once more. Then, 50 μL of Alexa Flour 647-labeled goat anti-human fluorescent secondary antibody (Jacksonimmuno, 109-605-088) diluted 1:800 is added to each well, and the 96-well plate is incubated at 4° C. for 0.5 hours. The cells are washed twice with PBS solution containing 2% FBS, then resuspended in 120 μL of PBS, and the cell surface fluorescence signal is detected using a flow cytometer (BD FACS Celesta), obtaining the median fluorescence intensity (MFI). A dose-response curve is generated, and the half-maximal effective concentration (EC50) is calculated using non-linear regression with GraphPad software.

Row | EC50 | Binder
6 | 1210 pM | B1

target: T1, human L1CAM (L1 cell adhesion …); assay: flow cytometry on HeLa cells (endogenous human L1CAM), hybridoma supernatant
Description: HeLa cells used in this example were used to measure the binding of mouse anti-L1CAM monoclonal antibodies to endogenously expressed human L1CAM on the cell surface. HeLa cells were cultured in DMEM complete medium (purchased from Corning) containing 10% FBS (purchased from Gibco) and 100 U/mL penicillin-streptomycin mixture (Thermofisher, 15140122). When the coverage of the cells in the culture container reached to 80-90%, using TrypLE (purchased from Thermofisher) to digest Hela cells from the culture container, and seed them in a 96-well plate (purchased from AXYGEN) at a density of 4×10⁶ cells/ml, with 100,000 cells per well (25 μL DMEM complete culture medium), then add 25 μL of diluted hybridoma supernatant containing antibodies to each well, mix gently, and incubate the 96-well plate at 4° C. for 1 hour. Then add 150 μL of PBS buffer containing 2% FBS (purchased from Corning) to each well, centrifuge at 1400 rpm for 4 minutes, remove the supernatant, and repeat washing once. Then, 50 μL of 1:800 diluted Alexa Flour 647-labeled goat anti-mouse fluorescent secondary antibody (purchased from Jacksonimmuno) was added to each well, and the 96-well plate was incubated at 4° C. for 0.5 hours. The cells were washed twice with PBS solution containing 2% FBS, and then resuspended in 120 μL of PBS. The fluorescence signal on the cell surface was detected using a flow cytometer (BD FACSCelesta) to obtain the median fluorescence intensity (MFI). The antibody-containing hybridoma supernatant was assayed using an anti-mouse ELISA assay to determine the concentration of mouse IgG in the supernatant. Finally, a dose-response curve was generated, and the half effective concentration (EC50) was calculated by nonlinear regression using GraphPad software.

Row | EC50 | Binder
7 | 436 pM | B6
8 | 193 pM | B7
9 | 241 pM | B8
10 | 144 pM | B9
11 | 233 pM | B10
